According to patent US20240325557A1, “TREATMENT OF CANCER” (INNATE PHARMA, priority 2020, published 2024):

T1: Nectin-4 Mutant 3 (A76S/Q77R/E78A/S91N) (Homo sapiens, UniProt Q96NY8, A76S/E78A/Q77R/S91N)
T1 construct: expressed in transfected cells; host or cells: HEK293T
T1 sequence (Q96NY8 32-510 A76S/Q77R/E78A/S91N): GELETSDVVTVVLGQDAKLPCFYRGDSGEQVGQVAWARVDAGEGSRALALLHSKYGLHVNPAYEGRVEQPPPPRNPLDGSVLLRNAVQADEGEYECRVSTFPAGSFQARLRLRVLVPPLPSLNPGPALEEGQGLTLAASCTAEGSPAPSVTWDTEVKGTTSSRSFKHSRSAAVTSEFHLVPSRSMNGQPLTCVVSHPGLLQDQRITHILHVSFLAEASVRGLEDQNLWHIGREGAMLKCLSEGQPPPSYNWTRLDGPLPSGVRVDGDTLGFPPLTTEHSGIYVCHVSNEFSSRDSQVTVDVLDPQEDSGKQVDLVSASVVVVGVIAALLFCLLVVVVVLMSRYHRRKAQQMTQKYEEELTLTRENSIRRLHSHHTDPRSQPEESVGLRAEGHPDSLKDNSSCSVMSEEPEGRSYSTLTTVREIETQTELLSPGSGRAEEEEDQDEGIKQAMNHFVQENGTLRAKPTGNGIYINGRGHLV

T2: Nectin-4 Mutant 7 (S195A/K197T/S199A) (Homo sapiens, UniProt Q96NY8, K197T/S195A/S199A)
T2 construct: expressed in transfected cells; host or cells: HEK293T
T2 sequence (Q96NY8 32-510 S195A/K197T/S199A): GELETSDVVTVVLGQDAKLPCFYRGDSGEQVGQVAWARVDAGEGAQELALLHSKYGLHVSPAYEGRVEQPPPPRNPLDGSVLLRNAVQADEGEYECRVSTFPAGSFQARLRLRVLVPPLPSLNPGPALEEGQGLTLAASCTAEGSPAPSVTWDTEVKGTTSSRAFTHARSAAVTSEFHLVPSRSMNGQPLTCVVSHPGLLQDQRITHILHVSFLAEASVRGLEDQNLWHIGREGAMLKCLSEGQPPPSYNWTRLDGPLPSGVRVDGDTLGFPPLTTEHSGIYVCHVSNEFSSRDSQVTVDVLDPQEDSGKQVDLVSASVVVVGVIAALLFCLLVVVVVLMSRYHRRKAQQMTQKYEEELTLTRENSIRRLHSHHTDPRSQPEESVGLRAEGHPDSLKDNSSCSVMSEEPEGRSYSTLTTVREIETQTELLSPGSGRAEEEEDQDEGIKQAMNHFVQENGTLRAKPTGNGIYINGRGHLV

T3: Nectin-4 Mutant 4 (A72P/G73N/G75S) (Homo sapiens, UniProt Q96NY8, A72P/G73N/G75S)
T3 construct: expressed in transfected cells; host or cells: HEK293T
T3 sequence (Q96NY8 32-510 A72P/G73N/G75S): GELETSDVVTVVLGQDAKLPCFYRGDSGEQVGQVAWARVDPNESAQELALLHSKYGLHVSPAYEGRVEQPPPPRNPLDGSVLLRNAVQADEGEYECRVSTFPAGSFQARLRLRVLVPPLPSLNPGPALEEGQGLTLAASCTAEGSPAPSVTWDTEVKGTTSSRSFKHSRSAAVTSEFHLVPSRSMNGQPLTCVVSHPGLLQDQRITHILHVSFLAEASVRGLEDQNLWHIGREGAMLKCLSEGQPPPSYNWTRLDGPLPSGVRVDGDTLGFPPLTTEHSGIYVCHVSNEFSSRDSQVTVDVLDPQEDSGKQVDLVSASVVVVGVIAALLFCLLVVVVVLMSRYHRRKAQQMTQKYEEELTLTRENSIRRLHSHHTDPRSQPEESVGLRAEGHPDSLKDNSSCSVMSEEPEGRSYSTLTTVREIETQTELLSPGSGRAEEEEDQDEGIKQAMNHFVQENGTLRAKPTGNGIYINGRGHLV


Experiments:
Assay in all cases: Binding to cell surface expressed Nectin-4 point mutant
[1] = system: Nectin-4 Mutant 5 (A158P/E160G/S243A/F244S); parameters: species or system human; conditions: HEK-293T; results irrelevant, due to an absence of expression of said protein
Description: (§1) Combined with the published structures of the Nectin-4 domains, Nectin-4 mutations at surface exposed amino acids residues were designed. Nectin-4 domain structure was modelled based on Protein Data Bank reference: 4FRW (domains V et C1). Human Nectin-4 used was NCBI Reference Sequence: NP_112178.2, mouse Nectin-4 used was NCBI Reference Sequence: AAL79833.1, cynomolgus Nectin-4 used was NCBI Reference Sequence: XP_005541277.1, rat Nectin-4 used was NCBI Reference Sequence: NP_001102546.1. The cells expressing the Nectin-4 mutants are then be used for testing anti-Nectin-4 antibodies for loss of binding to different Nectin-4 mutants to identify antibodies that bind to the same site on Nectin-4. […] FIGS. 12A and 12B show a molecular model of the human Nectin-4 protein, indicating the position of substituted residues in mutants 7 (12A) and in mutants 7bis (12B); these mutants are in the C1 domain identify two sites at the junction of domain C1 and V domain that are on opposing faces of the Nectin-4 protein.
(§2) Nectin-4 mutants were generated by PCR. The sequences amplified were run on agarose gel and purified using the Macherey Nagel PCR Clean-Up Gel Extraction kit. The purified PCR products generated for each mutant were then ligated into an expression vector, with the ClonTech InFusion system. The vectors containing the mutated sequences were prepared as Miniprep and sequenced. After sequencing, the vectors containing the mutated sequences were prepared as Midiprep using the Promega PureYield™ Plasmid Midiprep System. HEK293T cells were grown in DMEM medium (Invitrogen), transfected with vectors using Invitrogen's Lipofectamine 2000 and incubated at 37° C. in a CO2 incubator for 48 hours prior to testing for transgene expression. The targeted amino acid mutations are shown in Table 2 below, listing the residue present in wild-type Nectin-4/position of residue/residue present in mutant Nectin-4, with position reference being to the Nectin-4 protein with leader peptide shown in SEQ ID NO: 1.

[2] = target: T1, Nectin-4 Mutant 3 (A76S/Q77R/E78A/S91N); conditions: HEK-293T
Description: as §1, §2

[3] = target: T2, Nectin-4 Mutant 7 (S195A/K197T/S199A); conditions: HEK-293T
Description: as §1, §2

[4] = target: T3, Nectin-4 Mutant 4 (A72P/G73N/G75S); conditions: HEK-293T
Description: as §1, §2

| Molecule | association with Nectin-4 Mutant 5 [1] | association with Nectin-4 Mutant 3 [2] | association with Nectin-4 Mutant 7 [3] | association with Nectin-4 Mutant 4 [4] |
| --- | --- | --- | --- | --- |
| 5E7 (antibody, V domains shown) VH: QVQLQQPGAELVKPGASVKLSCKASGYIFTSYWMHWVKQRPGQGLEWIGEIDPSDSYTNYNQKFKGKATLTLDKSSSTTYMQLSSLTSEDSAVYYCVRGYGNYGDYWGQGTTLTVSS VL: DVVMTQAAFSNPVTLGTSASISCRSSKSLLHSNGITYLYWYLQKPGQSPQLLIYQMSNLASGVPDRFSSSGSGTDFTLRISRVEAEDVGVYYCAQNLELPWTFGGGTKLEIK | − | + | − | + |
| 10B12: anti-Nectin-4 antibody, VH SEQ ID NO: 24, VL SEQ ID NO: 25, binds junction of domain C1 and V (antibody, listed as Mus musculus, V domains shown) VH: QVQLQQPGAELVKPGASVKLSCKASGYTFTSYWMHWVKQRPGQGLEWIGEIDPSDSYTNYNQKFKGKATLTVDKSSSTAYMQLSSLTSEDSAVYYCVRGYGNYGDYWGQGTTLTVSS VL: DIVMTQAAFSNPVTLGTSASISCRSSKSLLHSNGITYLYWYLQKPGQSPQLLIYQMSNLASGVPDRFSSSGSGTDFTLRISRVEAEDVGVYYCAQNLELPWTFGGGTKLEIK | − | + | − | + |
| N41 (antibody, V domains shown) VH: QVQLKQSGPGLVQPSQSLSITCTVSGFSLTNYGVHWVRQSPGKGLEWLGVIWSGGSTDYNAAFISRLSISKDTSKSQVFFKMNSLQADDTAIYYCARELIHAMDNWGQGTSVTVSS VL: DIQMTQSPASLSVSVGETVTITCRASENIYSNLAWYQQKQGNSPQLLVFAATNLADGVPSRFSGSGSGTQYSLKINSLQSEDFGTYYCQHFWGTPTFGGGTKLEIK | − | + | + | + |
